From the RNAGym collection of RNA variant scans (doi:10.7554/elife.90254) come the findings set out here.

To fix the notation:
B1: OR4K15 (parent)
chain: GUUAACGGUCAUAGGCCAUGGAAACUAGGAGCACCAUUUCGCUGCCAGUGAAGAAAUGAACAAAGAAAAUCUGGGCCAGGCAGGCAUCAAAAGAAAUAGUCUUGCGCUCAACCAGAAAGUCUGUAAUCAUUUUAAGGGUA

In this data set the parent is B1. The data set can be described thus: self-cleavage, relative activity (ratio to wild type); higher = more cleavage; in vitro, sequencing; the parent is a self-cleaving ribozyme.
On to A36G A66G, for which the self-cleavage worked out at 1.8.

On to A36C A55G, for which the self-cleavage was 1.7.

For A33G A116C, the self-cleavage came out at 0.14.

Turning to A33G A116U, the self-cleavage amounted to 0.21.

Turning to A33G A116G, the self-cleavage was determined as 0.24.

For the variant C34U A95G, the self-cleavage was determined as 0.45.

For A36G A51U, the self-cleavage was 1.86.

Consider A36G A51G, for which the self-cleavage is 0.9.

In the case of G31C A125G, the self-cleavage turned out to be 0.93.

As for C32U A47U, the self-cleavage was determined as 0.9.

Take A30U U103A: the self-cleavage amounted to 0.53.

A30U U103G: the self-cleavage was 0.03.

For the variant A33G A51G, the self-cleavage came out at 0.75.

As to A33G A51U, the self-cleavage stood at 0.82.

With A33G A51C, the self-cleavage came to 0.52.

In the case of C32U A96G, the self-cleavage came out at 0.99.

Turning to C32A U108C, the self-cleavage came to 0.03.

In the case of A33U C105U, the self-cleavage was determined as 0.49.

As to A33G A118G, the self-cleavage amounted to 0.49.

With C35U A60G, the self-cleavage amounted to 0.76.

Consider A33C A96G, for which the self-cleavage was found to be 2.84.

Take A33G G74U: the self-cleavage turned out to be 0.19.

As to A36G A60U, the self-cleavage was determined as 0.82.

Turning to A33G A66U, the self-cleavage came to 0.35.

With C35A G99U, the self-cleavage is 0.79.

Turning to A36G A82C, the self-cleavage is 0.2.

On to C35U A126G, for which the self-cleavage is 0.58.

On to A33U U122A, for which the self-cleavage was 2.69.

Regarding A33U U122C, the self-cleavage came out at 1.02.

C34U U49C: the self-cleavage stood at 1.17.

Consider A33U A59C, for which the self-cleavage came out at 2.23.

A33U U139G: the self-cleavage amounted to 2.5.

As to A33U U139C, the self-cleavage turned out to be 1.86.

On to A36G A89G, for which the self-cleavage was 1.52.

Turning to C32U U103C, the self-cleavage came to 0.91.

Turning to C35A A51U, the self-cleavage came to 1.93.

With G31U U133C, the self-cleavage stood at 2.47.

On to A33C A60G, for which the self-cleavage is 1.57.

A36G A92C: the self-cleavage came out at 2.15.

With A36G A92G, the self-cleavage is 1.

With A33G A135G, the self-cleavage is 0.69.

For A33C U39A, the self-cleavage turned out to be 2.06.

Turning to G31C U108C, the self-cleavage was determined as 0.03.

Consider A36C U127A, for which the self-cleavage stood at 2.57.

As for A30U U132C, the self-cleavage is 1.33.

As for G31A A51G, the self-cleavage worked out at 1.64.

For the variant A30U G79U, the self-cleavage came to 0.09.

Consider C35A C121A, for which the self-cleavage turned out to be 1.53.

As to A33C A116G, the self-cleavage came out at 0.76.

G31C U122A: the self-cleavage turned out to be 1.89.

As to A33C C46U, the self-cleavage worked out at 1.3.

Turning to A33U C101A, the self-cleavage is 0.35.

In the case of A36C A59G, the self-cleavage was determined as 1.68.

For C34G A67G, the self-cleavage worked out at 1.12.

In the case of A30U U108C, the self-cleavage was 0.02.

Turning to G31A U39C, the self-cleavage came to 1.68.

As to A36G A69G, the self-cleavage came out at 1.37.

On to C34U U124A, for which the self-cleavage worked out at 0.3.

As to C32U U124C, the self-cleavage was 1.15.

On to G31U A63G, for which the self-cleavage turned out to be 2.02.

For C32U A63G, the self-cleavage worked out at 1.39.

On to A33G A36U, for which the self-cleavage was found to be 1.33.

Take A33G A36G: the self-cleavage stood at 1.15.

Take A33G U124C: the self-cleavage came to 0.63.

For the variant G31U A110G, the self-cleavage was 0.24.

In the case of A33U A118G, the self-cleavage was 0.91.

Consider A33U A118C, for which the self-cleavage is 1.06.

As to A33U A69G, the self-cleavage was determined as 1.71.

For the variant A33G U37C, the self-cleavage is 0.74.

With A33G U37A, the self-cleavage turned out to be 1.02.

Turning to A33U U120C, the self-cleavage was found to be 1.32.

For C34A A92C, the self-cleavage stood at 0.26.

Consider A36C U100C, for which the self-cleavage was 1.85.

On to A36G A114G, for which the self-cleavage was found to be 1.06.

For C32U A64G, the self-cleavage is 1.66.

On to C32U A118G, for which the self-cleavage turned out to be 1.44.

For A33G C77U, the self-cleavage came out at 1.59.

Regarding C34U A92G, the self-cleavage stood at 1.04.

Regarding G31A, the self-cleavage is 1.52.

For the variant G31U, the self-cleavage amounted to 1.7.

With G31C, the self-cleavage came to 1.79.

With A36C A66U, the self-cleavage was 1.68.

With A33G A94G, the self-cleavage was found to be 0.75.

For the variant A33G A62G, the self-cleavage turned out to be 1.11.

On to A33G A62U, for which the self-cleavage turned out to be 0.76.

Consider A33U G41A, for which the self-cleavage stood at 1.52.

Regarding A33G U43A, the self-cleavage is 1.32.

As to A33U A82U, the self-cleavage came to 0.23.

As to A36G A52G, the self-cleavage amounted to 1.79.

With C34A G73A, the self-cleavage stood at 0.17.

Take A33U A117G: the self-cleavage is 1.9.

As for C34U U130C, the self-cleavage is 1.44.

Turning to A33G A47U, the self-cleavage is 0.57.

As for A33G A47G, the self-cleavage was found to be 0.32.

Regarding C32U U130C, the self-cleavage turned out to be 1.26.

Take G31A A90G: the self-cleavage came to 1.8.

Take C35A A94G: the self-cleavage was found to be 2.34.

Consider A33U A94U, for which the self-cleavage was 2.41.

On to A33G A126U, for which the self-cleavage worked out at 0.86.

Turning to A33G A126C, the self-cleavage was 0.86.

Take A36C U37A: the self-cleavage amounted to 1.85.

Turning to A33C A64C, the self-cleavage stood at 1.61.

Turning to C34A A59G, the self-cleavage was 1.11.

As for C34A A116U, the self-cleavage amounted to 0.51.

As to G31C A55U, the self-cleavage is 1.76.

In the case of A36G A63G, the self-cleavage turned out to be 1.32.

With A36G A63C, the self-cleavage was 2.09.

Consider A36G A63U, for which the self-cleavage came out at 1.91.

With A33G U102A, the self-cleavage came to 0.34.

For A33G U102C, the self-cleavage is 1.44.

With A36G A62C, the self-cleavage was determined as 1.51.

In the case of A36G A62U, the self-cleavage is 2.06.

For the variant A36G A95G, the self-cleavage is 2.04.

In the case of A33U C112U, the self-cleavage is 0.01.

For A33G, the self-cleavage stood at 0.82.

Turning to A33U, the self-cleavage worked out at 1.4.

As for A33C, the self-cleavage is 1.35.

For the variant G31A A82U, the self-cleavage was found to be 0.14.

Regarding C35U A52G, the self-cleavage was found to be 1.03.

For A33G A96C, the self-cleavage came out at 0.76.

Turning to A33G A96U, the self-cleavage turned out to be 1.14.

Take C35U A117G: the self-cleavage turned out to be 1.25.

Take A33G U120C: the self-cleavage amounted to 0.53.

For C34U C128A, the self-cleavage came to 1.3.

Consider G31C U102C, for which the self-cleavage turned out to be 1.92.

On to C35U G136U, for which the self-cleavage amounted to 1.19.

As for A33C A68U, the self-cleavage was determined as 2.07.

As to A33G A140G, the self-cleavage was determined as 1.26.

Turning to A33G A140U, the self-cleavage turned out to be 0.97.

With C34U U120G, the self-cleavage was 0.94.

In the case of C35U U38C, the self-cleavage was determined as 0.61.

Take A33G U127C: the self-cleavage worked out at 0.23.

On to A33G U127A, for which the self-cleavage worked out at 1.19.

For C32U U39C, the self-cleavage worked out at 1.47.

Turning to C34U A55G, the self-cleavage was determined as 2.06.

In the case of C32U C105U, the self-cleavage stood at 0.18.

For the variant C34U U127C, the self-cleavage is 1.39.

In the case of C35U U132C, the self-cleavage turned out to be 0.37.

As for A33U A95U, the self-cleavage amounted to 2.

For A33G A114U, the self-cleavage was determined as 0.02.

A33G A114G: the self-cleavage worked out at 0.11.

A33G A114C: the self-cleavage amounted to 0.05.

Consider C35A A66G, for which the self-cleavage stood at 0.76.

For the variant A33G A55G, the self-cleavage is 0.85.

As to C32U A89G, the self-cleavage amounted to 0.89.

On to A33G G93A, for which the self-cleavage worked out at 1.14.

As for A33U A86G, the self-cleavage was 1.33.

A33C U127C: the self-cleavage came out at 1.38.

Consider G31A A54G, for which the self-cleavage came to 1.21.

Take A33U A64G: the self-cleavage was 1.31.

As to C34U U103A, the self-cleavage is 0.44.

Regarding C34U U103G, the self-cleavage was 0.04.

Turning to C32U A54G, the self-cleavage amounted to 1.37.

Regarding C34U U39C, the self-cleavage was found to be 1.5.

For A33U U38C, the self-cleavage was 2.

A33U A66G: the self-cleavage was determined as 1.91.

For A33G U100A, the self-cleavage is 0.28.

C34A A51G: the self-cleavage came out at 1.27.

With A33U U127A, the self-cleavage was 2.74.

Regarding A33U U39C, the self-cleavage amounted to 1.56.

In the case of A30U U97C, the self-cleavage was found to be 0.83.

On to A33U A89G, for which the self-cleavage is 1.46.

In the case of G31U U120C, the self-cleavage is 1.21.

With A33G C113A, the self-cleavage is 0.01.

As for G31A G73U, the self-cleavage turned out to be 0.3.

C32U A52G: the self-cleavage was found to be 1.73.

Take A36G A94G: the self-cleavage was found to be 1.86.
